# Measured values reported in article PMC12582296.
# What was measured:
# [1] = target: adaptor protein 2 (AP-2) complex; assay: ELISA-based peptide binding assay; settings: read off a plot
# [2] = target: HLA-E (wild type, EGFP at the C-terminus) (human)
Substance,"percentage of internalized HLA-E that reappeared on the cell surface within 1 h (recycling assay, HEK293T, peptide pulsing 50 µM) [2]",further results
HLA-E cytoplasmic tail peptide (E) (from UniProt P13747) K310R; K322Q; W325S,–,response (absorbance 450) ([1]; parent: est. 1.5): 0.83
Mtb44 peptide,18%,–
VL9 peptide,25%,–
RL9 peptide,15%,–
CD1b cytoplasmic tail peptide (CD1) (from UniProt P29016) Y5A,–,response (absorbance 450) ([1]; parent: est. 0.86): 0.64
